Drawing on PMC8366792, this text covers percent of the total peak that is trimer and stoichiometry N for two substances.

For test [1], the target named is CH848 10.17DT DS SOSIP trimer (HIV-1 (CH848 10.17) | HIV-1 (BG505)) (UniProt Q2N0S6). Briefly: SEC.
The target of test [2] is CH848 10.17DT SOSIPv4.1 trimer (HIV-1 (CH848 10.17) | HIV-1 (BG505)) (UniProt Q2N0S6). Briefly: SEC.

As to “CH848 10.17DT DS SOSIP trimer (from UniProt Q2N0S6 509-661) (domain or fragment)”, in test [1], the percent of the total peak that is trimer was found to be 65% and the stoichiometry N (as a rule, the number of molecules, sites or subunits per partner or assembly) amounted to 3. As to “CH848 10.17DT SOSIPv4.1 trimer (from UniProt Q2N0S6 509-661) (domain or fragment)”, the percent of the total peak that is trimer in test [2] came to 62%.
